Measurements as given in PMC7384550 (Journal of molecular biology, 2019).
Where a chain is given by its changes, count along the chain named. In names and notes the source's numbering stands.

T1: SinR (Bacillus subtilis, UniProt P06533 1-111)
T1 sequence: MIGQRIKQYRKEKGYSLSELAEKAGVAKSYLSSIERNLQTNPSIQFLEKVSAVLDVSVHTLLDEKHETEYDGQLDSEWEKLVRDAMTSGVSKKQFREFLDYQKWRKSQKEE

B1: SinI (antagonist of SinR) (natural protein, Bacillus subtilis, UniProt P23308 1-57, looked up)
chain: MKNAKQEHFELDQEWVELMVEAKEANISPEEIRKYLLLNKKSAHPGPAARSHTVNPF
B2: SinI^quad (SinI K34E, L38Y, K41W, S42R) (natural protein, Bacillus subtilis, UniProt P23308 1-57, looked up)
chain: B1 chain with K34E, L38Y, K41W, S42R
B3: 22-mer inverted repeat, 6-FAM (dsDNA)
DNA 1: TTTGTTCTCTAAAGAGAACTTA
DNA 2: TAAGTTCTCTTTAGAGAACAAA
B4: SinR (full-length, tetrameric transcriptional repressor) (natural protein, Bacillus subtilis, UniProt P06533 1-111, looked up)
chain: T1 sequence
B5: 90 bp tapA-sipW-tasA promoter bending substrate (dsDNA)
DNA 1: GAAAGTTCTCTAAAGAGAACATTATAAATAATAAGGGAAGTGCAGTAAATTAGAGGAAAATCATGTATTGTTCTCTAAAGAGAACTTAG
DNA 2: CTAAGTTCTCTTTAGAGAACAATATCATGATTTTCCTCTAATTTACTGCACTTCCCTTATTATTTATAATGTTCTCTTTAGAGAACTTTC
modifications: internal fluorescein-dT (T22 of strand 1); internal BHQ-1-dT (T25 of strand 2), both written as T

Key:
[1] = target: the molecule itself; test: SEC
[2] = target: B4; test: AUC
[3] = target: the molecule itself; test: AUC
[4] = target: T1, SinR; test: fluorescence anisotropy/polarization
[5] = target: T1, SinR; test: fluorescence quenching DNA-bending assay

| binding result [2] | Binder | stoichiometry N [1] | also measured |
| --- | --- | --- | --- |
| binds | B1 | 2 |  |
| binds | B2 |  | stoichiometry N [3]: 2 |
|  | B3 |  | Kd [4]: 249 ± 38 nM |
|  | EYDGQLDSEWEKLVRDAMTSGVSKKQFREFLDYQKWRKSQKEE (domain or fragment, Bacillus subtilis, UniProt P06533 69-111, looked up) [SinRC, the C-terminal oligomerization domain of SinR (residues 69-111)] | 4 |  |
|  | B4 | 4 |  |
|  | B5 |  | binding result [5]: binds |
